Measured values published in patent EP2975062B1.

Molecular target: c-mpl receptor (TPO receptor), expressed from c-mpl-pcDNA3.1 in NIH-3T3 cells
Test: cell-based or functional assay

The relative fluorescence ratio (firefly/Renilla luciferase, c-fos-pGL3 reporter, NIH-3T3 transfected with c-mpl-pcDNA3.1): 1.65
Substance: recombinant human TPO (rhTPO) (from UniProt P40225 22-353) (ligand)
